As a reminder, the stoichiometry N is a count of units in the complex or per binding partner.

This assay deals with human dynein heavy chain with an N-terminal GFP, within the GFP-dynein complex (human) (UniProt Q14204). The assay can be described thus: single-molecule photobleaching step counting.

Substance “human dynein heavy chain with an N-terminal GFP, within the GFP-dynein complex, Q14204 1-4646” yielded a stoichiometry N of 2.
